Measurements published in patent US20220010337A1.

Target: IL2 receptors (on the HEK IL-2 reporter cell line) (human) (UniProt P01589)
Assay: cell-based or functional assay

IL2 receptors (on the HEK IL-2 reporter cell line) (human), sequence (P01589 22-272, chain 1 of 3): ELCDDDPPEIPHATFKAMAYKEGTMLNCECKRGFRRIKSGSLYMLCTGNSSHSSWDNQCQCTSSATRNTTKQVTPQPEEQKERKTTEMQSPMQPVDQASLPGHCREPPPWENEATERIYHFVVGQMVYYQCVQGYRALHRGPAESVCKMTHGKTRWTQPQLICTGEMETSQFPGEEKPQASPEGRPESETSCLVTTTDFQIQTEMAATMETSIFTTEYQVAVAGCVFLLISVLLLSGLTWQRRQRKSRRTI
IL2 receptors (on the HEK IL-2 reporter cell line) (human), sequence (P14784 27-551, chain 2 of 3, further chain): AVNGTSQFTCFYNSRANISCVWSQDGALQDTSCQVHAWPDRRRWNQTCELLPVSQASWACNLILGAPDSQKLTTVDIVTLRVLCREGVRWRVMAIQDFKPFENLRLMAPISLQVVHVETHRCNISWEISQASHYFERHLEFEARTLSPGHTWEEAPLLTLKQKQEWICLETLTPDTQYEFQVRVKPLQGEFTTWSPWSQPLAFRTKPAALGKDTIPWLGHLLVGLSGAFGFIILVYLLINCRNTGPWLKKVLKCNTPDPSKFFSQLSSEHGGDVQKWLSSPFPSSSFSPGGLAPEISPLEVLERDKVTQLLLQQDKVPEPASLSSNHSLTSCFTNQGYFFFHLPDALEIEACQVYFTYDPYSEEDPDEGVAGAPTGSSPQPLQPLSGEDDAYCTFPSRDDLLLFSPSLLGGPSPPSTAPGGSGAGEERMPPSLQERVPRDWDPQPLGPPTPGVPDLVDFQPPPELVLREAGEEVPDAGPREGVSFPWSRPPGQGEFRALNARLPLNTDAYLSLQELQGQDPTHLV
IL2 receptors (on the HEK IL-2 reporter cell line) (human), sequence (P31785 23-369, chain 3 of 3, further chain): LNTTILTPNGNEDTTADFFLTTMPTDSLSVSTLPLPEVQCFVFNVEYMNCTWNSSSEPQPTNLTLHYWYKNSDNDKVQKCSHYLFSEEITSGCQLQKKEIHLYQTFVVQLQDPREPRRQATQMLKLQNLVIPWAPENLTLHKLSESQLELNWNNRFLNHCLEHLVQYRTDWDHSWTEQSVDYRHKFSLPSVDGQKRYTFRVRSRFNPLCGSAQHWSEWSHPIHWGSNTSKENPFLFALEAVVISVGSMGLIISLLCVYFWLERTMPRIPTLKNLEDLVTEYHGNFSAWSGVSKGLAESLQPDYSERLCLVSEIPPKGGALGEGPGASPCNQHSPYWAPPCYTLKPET

Row | Substance | IL-2 EC50 (nM) (approx.); SEAP induction in the HEK IL-2 reporter cell line, OD
1 | SpyCatcher-Cas9(WT)-2xNLS:Spytag-IL2(SK) conjugate (from UniProt Q99ZW2 2-1368) | 0.0095 nM
2 | Cas9-2xNLS-mouse WT IL2 (from UniProt P04351 21-169) | 0.34 nM
3 | IL2(SK)-SpyTag (ligand) | 0.037 nM

Results, then the substance that gave them:

Row | IL-2 EC50 (nM) (approx.); SEAP induction in the HEK IL-2 reporter cell line, OD | Substance
4 | 0.0057 nM | recombinant mouse IL-2 (from UniProt P04351 21-169) (ligand)
5 | 0.87 nM | Cas9-2xNLS-IL2(superkine) (from UniProt P60568 21-153)
